According to the supplement of paper PMC10567573:

B1: MYBL2 (parent)
chain: FPNRTDQQCQYRWLRVLNPDLVKG

Variants of: B1
Assay: protein stability index of a GFP-peptide fusion (GPS, HEK-293T) (PSI 1-6); higher = more stable
Conditions: c terminus: a fixed tail appended
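Also: lentivirally expressed fusions sorted by FACS into six bins by GFP to DsRed ratio, PSI derived from sequencing read proportions per bin multiplied by bin number.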

| Variant | protein stability index |
| --- | --- |
| FYNRTDQQCQYRWLRVLNPDLVKG [P2Y] | 2.2 |
| FPNRTDQQCQYRWLRVLNPDLIKG [V22I] | 2.04 |
| FPNRTDQQCQYRWLRVLNPDLNKG [V22N] | 2.01 |
| FPNRTDQQCQYRWLRVLNPDLHKG [V22H] | 2.74 |
| FPNRTDQQCQYRWLRVLNPDLCKG [V22C] | 1.79 |
| FPNRTDQQCQYRWLRVLNPDLGKG [V22G] | 2 |
| FPNRTDQQCQYRWLRVLNPDLLKG [V22L] | 2.21 |
| FPNRTDQQCHYRWLRVLNPDLVKG [Q10H] | 2.35 |
| FPNRTDQQCYYRWLRVLNPDLVKG [Q10Y] | 1.79 |
| FPNRTDQQCWYRWLRVLNPDLVKG [Q10W] | 2.4 |
| FPNRTDQQCRYRWLRVLNPDLVKG [Q10R] | 1.52 |
| FPNRTDQQCEYRWLRVLNPDLVKG [Q10E] | 2.23 |
| FPNRTDQQCFYRWLRVLNPDLVKG [Q10F] | 1.75 |
| FPNRTDQQCPYRWLRVLNPDLVKG [Q10P] | 2.18 |
| FPNRTDQQCTYRWLRVLNPDLVKG [Q10T] | 1.93 |
| FPNRTDQQCVYRWLRVLNPDLVKG [Q10V] | 1.81 |
| FPNRTDQNCQYRWLRVLNPDLVKG [Q8N] | 2 |
| FPNRTDQPCQYRWLRVLNPDLVKG [Q8P] | 2.09 |
| FPNRTDQRCQYRWLRVLNPDLVKG [Q8R] | 1.96 |
| FPNRTDQLCQYRWLRVLNPDLVKG [Q8L] | 1.68 |
| FPNRTDQQCQYRWLRVLNPDAVKG [L21A] | 1.88 |
| FPNRTDQQCQYRWLRVLNPDRVKG [L21R] | 2.31 |
| FPNRTDQQCQYRWLRVLNPDPVKG [L21P] | 2.83 |
| FPNRTDQQCQYRWLRVLNPDMVKG [L21M] | 2.27 |

| Variant | protein stability index |
| --- | --- |
| FPNRTDQQCQYRWLRVLNPDEVKG [L21E] | 2.43 |
| FPNRTVQQCQYRWLRVLNPDLVKG [D6V] | 1.98 |
| FPNRTHQQCQYRWLRVLNPDLVKG [D6H] | 1.94 |
| FPNRTNQQCQYRWLRVLNPDLVKG [D6N] | 1.8 |
| FPNRTSQQCQYRWLRVLNPDLVKG [D6S] | 1.89 |
| FPNRTGQQCQYRWLRVLNPDLVKG [D6G] | 1.51 |
| FPNRTIQQCQYRWLRVLNPDLVKG [D6I] | 2.07 |
| FPNRTTQQCQYRWLRVLNPDLVKG [D6T] | 1.84 |
| FPNRTCQQCQYRWLRVLNPDLVKG [D6C] | 1.45 |
| FPNRTMQQCQYRWLRVLNPDLVKG [D6M] | 1.27 |
| FPNRTLQQCQYRWLRVLNPDLVKG [D6L] | 1.97 |
| FPNRMDQQCQYRWLRVLNPDLVKG [T5M] | 2.33 |
| FPNRFDQQCQYRWLRVLNPDLVKG [T5F] | 1.49 |
| FPNRGDQQCQYRWLRVLNPDLVKG [T5G] | 1.53 |
| FPNRCDQQCQYRWLRVLNPDLVKG [T5C] | 1.57 |
| FPNRWDQQCQYRWLRVLNPDLVKG [T5W] | 2 |
| FPNRQDQQCQYRWLRVLNPDLVKG [T5Q] | 1.76 |
| FPNRLDQQCQYRWLRVLNPDLVKG [T5L] | 1.64 |
| FPNRTDQQCQYRWLRVKNPDLVKG [L17K] | 2.47 |
| FPNRTDQQCQYRWLRVDNPDLVKG [L17D] | 1.91 |
| FPNRTDQQCQYRWLRVRNPDLVKG [L17R] | 2.28 |
| FPNRTDQQCQYRWLRVTNPDLVKG [L17T] | 1.63 |
| FPNRTDQQCQYRWLCVLNPDLVKG [R15C] | 2.19 |
| FPNRTDQQCQYRWLGVLNPDLVKG [R15G] | 2.18 |

| Variant | protein stability index |
| --- | --- |
| FPNRTDQQCQYRWLLVLNPDLVKG [R15L] | 1.98 |
| FPNRTDQQCQYRWLHVLNPDLVKG [R15H] | 2.31 |
| FPNRTDQQCQYRWLNVLNPDLVKG [R15N] | 1.52 |
| FPNRTDQQCQYRWLDVLNPDLVKG [R15D] | 2.48 |
| FPNRTDQQCQYRWLAVLNPDLVKG [R15A] | 1.45 |
| FPNRTDQQCQYRWLQVLNPDLVKG [R15Q] | 2.15 |
| FPNRTDQQCQYRWLTVLNPDLVKG [R15T] | 1.45 |
| FPNRTDQQCQYRWLIVLNPDLVKG [R15I] | 2.25 |
| FPNRTDQQCQYRWLRDLNPDLVKG [V16D] | 2.99 |
| FPNRTDQQCQYRWLRHLNPDLVKG [V16H] | 2.39 |
| FPNRTDQQCQYRWLRFLNPDLVKG [V16F] | 1.81 |
| FPNRTDQQCQYRWLRNLNPDLVKG [V16N] | 2.05 |
| FPNRTDQQCQYRWLRALNPDLVKG [V16A] | 1.87 |
| FPNRTDQQCQYRWLRQLNPDLVKG [V16Q] | 2.46 |
| FPNRTDQQCQYRWLRLLNPDLVKG [V16L] | 1.77 |
| FPNRTDQQCQYRWLRVLNPPLVKG [D20P] | 2.35 |
| FPNRTDQQCQYRWLRVLNPFLVKG [D20F] | 1.68 |
| FPNRTDQQCQYRWLRVLNPCLVKG [D20C] | 1.83 |
| FPNRTDQQCQYRWLRVLNPVLVKG [D20V] | 1.14 |
| FPNRTDQQCQYRWLRVLNPSLVKG [D20S] | 2.24 |
| FPNRTDQQCQYRWLRVLNPALVKG [D20A] | 2.13 |
| FPNRTDQQCQYRWLRVLNPKLVKG [D20K] | 2.06 |
| FPNRTDQQCQYRWLRVLNPGLVKG [D20G] | 1.6 |
| FPNRTDQQCQNRWLRVLNPDLVKG [Y11N] | 2.39 |

| Variant | protein stability index |
| --- | --- |
| FPNRTDQQCQIRWLRVLNPDLVKG [Y11I] | 2.04 |
| FPNRTDQQCQLRWLRVLNPDLVKG [Y11L] | 2.1 |
| FPNRTDQQCQSRWLRVLNPDLVKG [Y11S] | 2.11 |
| FPNRTDQQCQHRWLRVLNPDLVKG [Y11H] | 2.24 |
| FPNRTDQQCQGRWLRVLNPDLVKG [Y11G] | 2.31 |
| FPNRTDQQCQYRWLRVLNPDLVQG [K23Q] | 2.1 |
| FPNRTDQQCQYRWLRVLNPDLVDG [K23D] | 1.97 |
| FPNRTDQQCQYRWLRVLNPDLVLG [K23L] | 1.64 |
| FPNRTDQQCQYRWLRVLNPDLVCG [K23C] | 3.33 |
| FPNRTDQQCQYRWLRVLNPDLVYG [K23Y] | 1.38 |
| FPNRTDQQCQYRWLRVLNPDLVPG [K23P] | 2.06 |
| FPNRTDQQCQYRWLRVLNPDLVAG [K23A] | 1.22 |
| FPNRTDQQCQYRWLRVLNPDLVRG [K23R] | 2.21 |
| FPNRTDQQCQYRWLRVLNPDLVNG [K23N] | 2.11 |
| FPNRTDQQCQYRWLRVLNPDLVWG [K23W] | 1.27 |
| FPNRTDQQCQYRWLRVLNPDLVGG [K23G] | 1.8 |
| FPARTDQQCQYRWLRVLNPDLVKG [N3A] | 2.27 |
| FPGRTDQQCQYRWLRVLNPDLVKG [N3G] | 1.77 |
| FPRRTDQQCQYRWLRVLNPDLVKG [N3R] | 2.1 |
| FPKRTDQQCQYRWLRVLNPDLVKG [N3K] | 1.77 |
| FPIRTDQQCQYRWLRVLNPDLVKG [N3I] | 1.82 |
| FPYRTDQQCQYRWLRVLNPDLVKG [N3Y] | 1.87 |
